Measurements published in paper PMC10175771.

Biological target: P. falciparum cytochrome c-2 (PF3D7_1311700), recombinant, hemylated, N-terminal His6 tag (P. falciparum) (UniProt Q8I6T6)
Assay: crystal structure

Substance: P. falciparum cytochrome c-2 (PF3D7_1311700), recombinant, hemylated, N-terminal His6 tag (from UniProt Q8I6T6 1-159) (natural protein)
- stoichiometry N: 2
